As a reminder, the Kd is the concentration at which binding is half-saturated. Usually stoichiometry N stands for a count of units in the complex or per binding partner.

Several values for one entry are separate records, joined by “and”; a condition that tells them apart may be missing. Equal entries are not always repeated.

In one assay the target is T1, LolA (LolA-PG) (Porphyromonas gingivalis, UniProt B2RI10).
T1 construct: gene PGN_0486; LolA residues 27–215
Nature of the assay: isothermal titration calorimetry (single-site model, […] °C). The format is binding. On the technique in general: In ITC the heat of successive injections is recorded.

Assay [1] addresses LolB from Vibrio cholerae (Vibrio cholerae). As to the kind of experiment: ITC; LolA injected on LolB-VC (750 µM and 100 µM); MicroCal auto-iTC200, 25 °C, 20 mM HEPES pH 7.5, 150 mM NaCl; heats of LolA on buffer subtracted; single site binding model; no lipoprotein present.
In the next assay the target is LolB (Escherichia coli) (UniProt P61320). The note with it: cited from earlier work.
The target in assay [2] is LolB from Vibrio cholerae (Vibrio cholerae (strain A1552)). Nature of the assay: ITC; MicroCal auto-iTC200, 25 °C, 20 mM HEPES pH 7.5, 150 mM NaCl; LolA injected onto LolB, 20 injections, stirring 300 rpm; single site binding model; no lipoprotein present.

As for `N=C(N)SCc1ccc(Cl)c(Cl)c1` [A22], at LolA (LolA-PG), binding was characterised by a dissociation constant (Kd) of 681 ± 44.1 µM.

Turning to “LolA from Vibrio cholerae (from UniProt A5F2G9 17-198) (natural protein)”, in assay [1], the Kd was 27.5 µM and 32.9 µM; the stoichiometry N is 0.72 and 0.83 and 0.78.

Turning to LolA (from UniProt P61316), the Kd in the assay with LolB (Escherichia coli) is 30.6 µM.

B1: LolA from Vibrio cholerae (natural protein)
chain: APKDTLSERLAMSEGFSATFNQQVLSPEGKVILTGNGKVDIARPSLFRWETETPDENLLVSDGTTLWHFDPFVEQVTLYRAEEALEQTPFVLLTRNKASDWDAYHVEEKGDVFTLTPTALDSNQGRFQITISEKGVVQGFKVIEQDGQQSEFTFSKVKQQKPNASVFNYKVPKGVEVDDQRN
In assay [2], B1 registered a Kd of 30.2 µM.

These data come from publication PMC10126205, “A comparative analysis of lipoprotein transport proteins: LolA and LolB from Vibrio cholerae and LolA from Porphyromonas gingivalis” (Scientific Reports, 2023).
